Data reported in patent US20190015518A1, “DRUG DELIVERY COMPOSITIONS AND METHODS” (priority 2016, published 2019).
Several values for one entry are separate records, joined by “and”; a condition that tells them apart may be missing. Equal entries are not always repeated.

What was measured:
[1] = Viscosity reduction by excipients (rheometer); format: physicochemical
Experimental: The viscosity of 29 kDa HA (60 mg/mL), 33HA-Lys (33 kDa HA with linker, 8 mg/mL on HA basis), and 33HA-Lys-Pt (41.7 mg/mL on HA basis) with increasing concentration of mannitol (0, 0.1, 0.5 and 1 M) were measured using a rheometer at 37° C.
(§1) The solutions were incubated in the dark for 20 hours using a CLAY ADAMS® Brand Nutator. After 20 hours, the pH of the solutions were adjusted to pH 6.0 using 1N NaOH. A Brookfield DVIII Ultra Programmable Rheometer was used to measure the viscosity of three 500-μL samples of each solution. Measurements were taken for each at three different RPMs, where the torque ranged from 10-100%. Values for viscosity were not recorded until at least 30 seconds after the motor was started, after the torque readings were stabilized.
as §1, with “to pH 5.0 or 6.0 using” for “to pH 6.0 using”

[2] = Pharmacokinetics in three tumor-bearing dogs (three-compartmental model); format: in vivo, dog; settings: 10 mg/m2
Experimental: An open label, multiple dose/dosage phase I/II trial of 75HA-Lys-Pt was conducted at the University of Missouri Veterinary Medical Teaching Hospital (MU-VMTH). The clinical trial protocol was approved by the University of Missouri ACUC. Dogs of any age, sex, or breed presented to the MU-VMTH oncology service with the a histological diagnosis of anal sac carcinoma, oral squamous cell carcinoma, oral melanoma, nasal carcinoma, or digital squamous cell carcinoma with a performance score of 0 or 1 (0: normal activity; 1: restricted activity; 2: compromised activity; 3: disabled; 4: dead) and without comorbid conditions that would limit life expectancy to less than nine weeks were offered enrollment in the trial.
Following complete staging, client consent was obtained to enroll each dog in the study. Once enrolled in the study, longest tumor diameters of all target lesions were recorded. An indwelling jugular catheter was placed to facilitate collection of blood samples. Dogs received 10 to 30 mg/m^2 intra-tumoral injections through 1 to 3 pre-placed 22-ga spinal needles once every three weeks for up to four planned doses. Dogs were sedated or anesthetized for each treatment, and a 2-mL blood sample was collected from the jugular catheter at 0.5, 1, 2, 4, and 24 hours following drug administration. Blood samples were spun, plasma was collected and frozen within two hours. A CBC and renal profile with urinalysis were conducted prior to and one week after each treatment. Some dogs experiencing apparent adverse effects of drug administration had complete biomedical profiles performed. Tumor measurements were collected three weeks following each administration to assess response.
Serum samples of 3 dogs were diluted 20-fold in 1% HNO3, and vortexed prior to inductively coupled plasma mass spectrometry (ICP-MS) analysis. The platinum concentration of serum was determined using an Agilent 7500i ICP-MS. A calibration curve was generated from 1 to 50 ppb platinum (acceptable criterion R^2>0.995) and 50-ppb bismuth was used as an internal standard. […] The pharmacokinetics were modeled using a SAAM II three-compartmental model.
The serum pharmacokinetics data was modeled using a three-compartmental model with an injection site compartment (q3), a serum compartment (q1), and a tissue compartment (q2). […] Three transfer constants, k(1,3), k(1,2) and k(2,1), and one loss constant, k(0,1), were assigned to the model. The k(1,3) defined the drug absorption process allowing the transfer of HA-Pt from the injection site compartment to the serum compartment. A reversible k(3,1) was not necessary as a sink condition was assumed. Due to the concentration gradient between the injection site and the central serum compartments, drug redistribution back to the injection site was not expected. […] Drug transfer and equilibrium between plasma and tissue compartments were represented by k(1,2) and k(2,1). Post-injection drug diffused from the tissue at the injection site to the blood capillaries and the lymphatic vessels. Eventually the drug molecules entered the systemic circulation and distributed into organs. It is likely that the highly perfused organs, such as liver and kidneys, established equilibrium sooner than organs with low blood flow.

For “HA-cis-[Pt(NH3)2(N^α-Acetyl-L-Lysine)] [75HA-Lys-Pt]”, the “percent reduction of viscosity” value ([1]; 12 mM CaAc2, pH 5.0) was 25.1-78.0%, the “percent reduction of viscosity” value ([1]; 12 mM CaAc2, pH 6.0) was 21.4-81.0% and the “percent reduction of viscosity” value ([1]; 12 mM NaCl, pH 5.0) was 36.6-83.2%. For the same substance, the “percent reduction of viscosity” value ([1]; 12 mM calcium lactate, pH 5.0) was 23.0-71.8%, the “percent reduction of viscosity” value ([1]; 12 mM calcium lactate, pH 6.0) was 24.3-80.9% and the “percent reduction of viscosity” value ([1]; 12 mM sodium acetate and trehalose 15% wt, pH 5.0, two batches) was 54.1% and 84.3%. For the same substance, the “percent reduction of viscosity” value ([1]; 12 mM sodium acetate, pH 5.0) was 14.5-89.2%, the “percent reduction of viscosity” value ([1]; 12 mM sodium carbonate and trehalose 15% wt, pH 5.0) was 48.5-99.0% and the “percent reduction of viscosity” value ([1]; 12 mM sodium carbonate, pH 5.0) was 60.6-99.2%. For the same substance, the “percent reduction of viscosity” value ([1]; 12 mM sodium citrate and trehalose 15% wt, pH 5.0) was 15.6-95.4%, the “percent reduction of viscosity” value ([1]; 12 mM sodium citrate, pH 5.0) was 38.4-97.2% and the “percent reduction of viscosity” value ([1]; CaCl2-containing PBS buffer, pH 6.0, three batches) was 55.2-88.6%. The “percent reduction of viscosity” value ([1]; Sodium Chelex 100, pH 5.0, two batches) was 82.0% and 91.7%, the “percent reduction of viscosity” value ([1]; buffer-free CaCl2, pH 5.0, three batches) was 32.1-76.6% and the “percent reduction of viscosity” value ([1]; buffer-free CaCl2, pH 6.0, three batches) was 26.6-77.0%. For the same substance, the AUC ([2]; Dog 1 (28.7 kg)) was 4000 ng·h/mL, the Cmax ([2]; Dog 1 (28.7 kg)) was 174 ng/mL and the Tmax ([2]; Dog 1 (28.7 kg)) was 60 min. For the same substance, the Vss ([2]; Dog 1 (28.7 kg)) was 2 L/kg, the AUC ([2]; Dog 2 (25.2 kg)) was 900 ng·h/mL and the Cmax ([2]; Dog 2 (25.2 kg)) was 155 ng/mL. The Tmax ([2]; Dog 2 (25.2 kg)) was 30 min, the Vss ([2]; Dog 2 (25.2 kg)) was 33.4 L/kg and the AUC ([2]; Dog 3 (6.5 kg)) was 2200 ng·h/mL. For the same substance, the Cle ([2]; Dog 3 (6.5 kg)) was 1.53 mL/min/kg, the Cmax ([2]; Dog 3 (6.5 kg)) was 128 ng/mL and the Tmax ([2]; Dog 3 (6.5 kg)) was 30 min. The Vss ([2]; Dog 3 (6.5 kg)) was 8.9 L/kg.
